Measured values: US20130287807A1, “COMPOUNDS FOR TREATING SYMPTOMS ASSOCIATED WITH PARKINSON'S DISEASE” (priority 2008, published 2013)
“Also recorded” adds a separate entry of the source.

Columns and labels:
[1] = test system: full length Aβ and/or fragments thereof; assay: Immune response elicited by using AD mimotopes: detection of Aβ; assay type: in vivo; parameters: key: +: All peptides listed in table 1 mount specific immune reactions against full length Aβ and/or fragments thereof
From the text: In the following Table further examples of the immune response elicited by using AD mimotopes are described. All peptides listed in table 1 mount specific immune reactions against full length Aβ and/or fragments thereof.

[2] = test system: monoclonal antibody (DAEFRH-peptide-specific); assay: Inhibition assay (ELISA): mimotope peptides compete with plate-bound original epitope DAEFRH for recognition by the monoclonal antibody; assay type: binding, Mice; settings: for inhibition of binding of the monoclonal antibody to the original epitope: competition ELISA, plate-bound DAEFRH-C-BSA, text to FIGS. 2-9; for Inhibitory capacity of mimotopes: summary Tables 1 and 2 (Examples 2, 3)
[3] = test system: monoclonal antibody MV-003; assay: In vitro inhibition assay (ELISA), MV-003 binding to original epitope; parameters: species or system BalbC mice; settings: Table 2A; OD at 10 ug peptide compared to original peptide
Protocol: Different amounts of peptides (concentrations ranging from 10 μg to 0.08 μg; serial dilutions; for MV-002: concentrations ranging from 5 μg to 0.03 μg; serial dilutions), derived from Phage Display were incubated with the monoclonal antibody that was used for the screening procedure. Peptides diminishing subsequent binding of the antibody to the original epitope coated on ELISA plates were considered as inhibiting in this assay.
Legend to Table 2A: the inhibition capacity is coded by the following code: Weak inhibition means more peptide is required to lower AB binding than with the original epitope; strong inhibition means similar peptide amounts are required for mimotope and original epitope for lowering AB binding. Mimotopes are compared to the original peptide as standard. OD at 10 ug peptide used in the assay is used to calculate the competition capacity compared to original peptide.

[4] = test system: monoclonal antibody MV-003; assay: In vitro binding assay (ELISA), BSA-coupled peptides, parental antibody MV-003; parameters: species or system BalbC mice; settings: Table 1A; peptide-BSA on plate, compared to original epitope
Protocol: Peptides derived from Phage Display as well as variants thereof were coupled to BSA and bound to ELISA plates (1 μM; as indicated in the respective figures) and subsequently incubated with the monoclonal antibody that was used for the screening procedure to analyse binding capacity of identified peptides.
Legend to Table 1A: the binding capacity is coded by the following binding code: 1:X describes the dilution factor of the parental AB.

[5] = test system: Aβ/truncated/modified forms; assay: In vivo characterisation of mimotopes: detection of Aβ/truncated/modified forms; parameters: species or system C57/B16 mice; key: +: All peptides listed in Table 5 mount specific immune reactions against full length and/or truncated and modified forms of Aβ or fragments thereof; settings: Table 5, MV-003 derived mimotopes
Protocol: Inhibiting as well as non-inhibiting peptides were coupled to KLH and injected into mice (wildtype C57/B16 mice; subcutaneous injection into the flank) together with an appropriate adjuvant (aluminium hydroxide). Animals were vaccinated 3-6 times in biweekly intervals and sera were taken biweekly as well. Titers to injected peptides, as well as to an irrelevant peptide were determined with every serum. Furthermore, titers against the recombinant human Aβ protein, and against original peptides were determined respectively. In general sera were analysed by reaction against peptides coupled to Bovine Serum Albumin (BSA) and recombinant full length proteins which were immobilised on ELISA plates. Titers were determined using anti mouse IgG specific antibodies. For detailed results see FIGS. 15, 16 and 17 respectively and FIGS. 23, 24 and 25 respectively.
(§1) Female C57/b16 mice, 5-6 mice per group, were subcutaneously immunized with 30 μg peptide coupled to KLH. Control groups were administered original epitope-KLH conjugates respectively. As adjuvant alum was used (always 1 mg per mouse). […] The in vitro ELISA assay to determine the antibody titer was performed with sera of single mice after each vaccination in a two week interval (see FIGS. 15 and 16 respectively). The wells of the ELISA plate were coated with mimotope-BSA conjugate and an irrelevant peptide-BSA conjugate (negative control). The positive control was performed by reaction of the parental antibody with the respective mimotope-BSA conjugate. The detection was performed with anti-mouse IgG. Additionally, recombinant proteins were immobilised on ELISA plates and sera reacted accordingly. FIGS. 15 to 17 show representative examples for assays used to characterise mimotopes in vivo.
as §1, with “FIGS. 25” for “FIGS. 15”, “and 26” for “and 16”, “respectively). Titers were calculated as OD max/2 in all figures shown.” for “respectively).”, “FIGS. 23, 24 and 25” for “FIGS. 15 to 17”

[6] = target: monoclonal antibody MV-004; assay: inhibition ELISA, competitor coated original epitope p4372; code 1 = weaker than original epitope
[7] = target: monoclonal antibody MV-004; assay: ELISA on peptide-BSA; code 1 = weak binding, OD halfmax 1:<24000
[8] = target: monoclonal antibody MV-003; assay: ELISA on peptide-BSA; code 1 = weak binding, OD halfmax 1:<16000
[9] = target: monoclonal antibody MV-003; assay: inhibition ELISA, competitor coated original epitope p4373; code 1 = weaker than original epitope
[10] = target: DAEFRH-peptide-specific monoclonal antibody (Example 1); assay: inhibition ELISA, competitor plate-bound DAEFRH-C-BSA
[11] = target: DAEFRH-peptide-specific monoclonal antibody (Example 1); assay: inhibition ELISA, competitor plate-bound DAEFRH-C-BSA; inhibitory capacity
[12] = target: monoclonal antibody MV-004; assay: inhibition ELISA, competitor coated original epitope p4372; code 2 = strong inhibition (as original epitope)
[13] = target: monoclonal antibody MV-001; assay: inhibition ELISA, competitor coated original epitope p4371; code 2 = strong inhibition (as original epitope)
[14] = target: monoclonal antibody MV-001; assay: ELISA on peptide-BSA; code 3 = strong binding, OD halfmax 1:>20000

C[C@H](NC(=O)[C@@H](N)CCC(=O)O)C(=O)N[C@@H](CCC(=O)O)C(=O)N[C@@H](Cc1ccccc1)C(=O)N[C@@H](CCCNC(=N)N)C(=O)NCC(=O)N[C@@H](CS)C(=O)O [Peptide 3006, EAEFRG] was tested, and the “Detection of Aβ” value [1] was “+”, the “inhibition of binding of the monoclonal antibody to the original epitope” value (“inhibition of binding … to the original epitope” for short) [2] was “block epitope recognition” and the “Inhibitory capacity of mimotopes” value [2] was “strong”.

N=C(N)NCCC[C@H](NC(=O)[C@H](Cc1ccccc1)NC(=O)[C@H](CCC(=O)O)NC(=O)[C@H](Cc1ccc(O)cc1)NC(=O)[C@@H](N)CC(=O)O)C(=O)NCC(=O)N[C@@H](CS)C(=O)O [Peptide 3007, DYEFRG] was tested, and the “Detection of Aβ” value [1] was “+”, the “inhibition of binding … to the original epitope” value [2] was “block epitope recognition” and the “Inhibitory capacity of mimotopes” value [2] was “strong”.

With CC(C)C[C@H](NC(=O)[C@@H](N)CCC(=O)O)C(=O)N[C@@H](CCC(=O)O)C(=O)N[C@@H](Cc1ccccc1)C(=O)N[C@@H](CCCNC(=N)N)C(=O)NCC(=O)N[C@@H](CS)C(=O)O [Peptide 3008, ELEFRG] the “Detection of Aβ” value [1] was “+” and the “Inhibitory capacity of mimotopes” value [2] was “weak”.

GREFRN (GREFRNC) [Peptide 4003] was tested, and the “Detection of Aβ” value [1] was “+”, the “inhibition of binding … to the original epitope” value [2] was “block epitope recognition; also recorded: only inhibitory at a relatively high concentration (10 μg/ml)” and the “Inhibitory capacity of mimotopes” value [2] was “weak”.

For IRWDGC [p4792], the “Inhibition Capacity” value [3] was 1 (Weaker than original epitope (OD of 10 ug peptide below 12 times of original peptide)) and the “Binding Capacity” value [4] was 1 (weak binding :<16000).

With IRWDGGC [p4793] the “Inhibition Capacity” value [3] was 1 (Weaker than original epitope (OD of 10 ug peptide below 12 times of original peptide)) and the “Binding Capacity” value [4] was 2 (medium binding :16-60000).

In the case of IRWDQPC [p4756], the “Inhibition Capacity” value [3] is reported as 1 (Weaker than original epitope (OD of 10 ug peptide below 12 times of original peptide)) and the “Binding Capacity” value [4] is reported as 3 (strong binding :>60000).

For IRWDTSLC [p4728], the “Inhibition Capacity” value [3] was 2 (strong inhibition (as original epitope; OD of 10 ug peptide below 5 times of original peptide)) and the “Binding Capacity” value [4] was 3 (strong binding :>60000).

IRYDMAGC [p4399] was tested, and the “Binding Capacity” value [4] was 1 (weak binding :<16000) and the “Detection of Aβ/truncated/modified forms” value [5] was “+”.

B1: p4420 (peptide)
peptide: ELWHRYPC
With B1 the OD at 10 ug peptide as multiple of OD with original peptide [6] was 2 to 5 fold.

B2: p4788 (peptide)
peptide: EVWHRGC
With B2 the OD halfmax 1:X (dilution factor of the parental antibody at half-maximal OD) (dilutionfactor(1:x)) [7] was less than 24000 and the OD at 10 ug peptide as multiple of OD with original peptide [6] was 2 to 5 fold.

B3: p4396 (peptide)
peptide: VRWDVYPC
Molecule B3 has a dilution factor of the parental antibody at OD halfmax (1:X) (dilutionfactor(1:x)) [8] of less than 16000.

B4: p4395 (peptide)
peptide: IRWDTPC
B4 was tested, and the OD at 10 ug peptide relative to OD of original peptide (inhibition ELISA) [9] was 5 to 12 fold.

B5: Peptide 3002 (peptide)
peptide: DWELRIC
B5 showed an IC50 [10] greater than 0.5 µg/mL and an IC50 [11] greater than 0.5 µg/mL.

B6: p4789 (peptide)
peptide: EVWHRHC
For B6, the OD halfmax 1:X (dilution factor of the parental antibody at half-maximal OD) (dilutionfactor(1:x)) [7] was less than 24000 and the OD at 10 ug peptide as multiple of OD with original peptide [6] was 2 to 5 fold.

B7: p4665 (peptide)
peptide: ELWHRAFC
In the case of B7, the OD at 10 ug peptide as multiple of OD with original peptide [12] is reported as less than 2 fold.

B8: p4786 (peptide)
peptide: ELWHRAC
With B8 the OD halfmax 1:X (dilution factor of the parental antibody at half-maximal OD) (dilutionfactor(1:x)) [7] was less than 24000 and the OD at 10 ug peptide as multiple of OD with original peptide [6] was 2 to 5 fold.

B9: p4397 (peptide)
peptide: IRYDAPLC
Work on B9 yielded an OD at 10 ug peptide relative to OD of original peptide (inhibition ELISA) [9] of 5 to 12 fold and a dilution factor of the parental antibody at OD halfmax (1:X) (dilutionfactor(1:x)) [8] of less than 16000.

B10: Peptide 3001 (peptide)
peptide: DKELRIC
B10 showed an IC50 [10] of less than 0.5 µg/mL and an IC50 [11] of less than 0.5 µg/mL.

B11: p4715 (peptide)
peptide: TLHEFRHC
With B11 the OD at 10 ug peptide relative to OD of original peptide (inhibition ELISA) [13] was less than 2 fold and the OD halfmax 1:X (dilution factor of the parental antibody at half-maximal OD) (dilutionfactor(1:x)) [14] was greater than 20000.

B12: p4417 (peptide)
peptide: EVWHRHQC
B12 showed an OD at 10 ug peptide as multiple of OD with original peptide [6] of 2 to 5 fold.

B13: p4790 (peptide)
peptide: ERWHEKC
B13 was tested, and the OD halfmax 1:X (dilution factor of the parental antibody at half-maximal OD) (dilutionfactor(1:x)) [7] was less than 24000 and the OD at 10 ug peptide as multiple of OD with original peptide [12] was less than 2 fold.

B14: p4399 (peptide)
peptide: IRYDMAGC
Work on B14 yielded a dilution factor of the parental antibody at OD halfmax (1:X) (dilutionfactor(1:x)) [8] of less than 16000.

B15: p4802 (peptide)
peptide: CHEFRH
In the case of B15, the OD at 10 ug peptide relative to OD of original peptide (inhibition ELISA) [13] is reported as less than 2 fold and the OD halfmax 1:X (dilution factor of the parental antibody at half-maximal OD) (dilutionfactor(1:x)) [14] is reported as greater than 20000.

B16: Peptide 3006 (peptide)
peptide: EAEFRGC
B16 was tested, and the IC50 [10] was less than 0.5 µg/mL and the IC50 [11] was less than 0.5 µg/mL.

B17: p4792 (peptide)
peptide: IRWDGC
Molecule B17 has an OD at 10 ug peptide relative to OD of original peptide (inhibition ELISA) [9] of 5 to 12 fold and a dilution factor of the parental antibody at OD halfmax (1:X) (dilutionfactor(1:x)) [8] of less than 16000.

B18: Peptide 3005 (peptide)
peptide: YAEFRGC
B18 gave an IC50 [10] greater than 0.5 µg/mL and an IC50 [11] greater than 0.5 µg/mL.

B19: p4753 (peptide)
peptide: TEFRHKAC
B19 gave an OD at 10 ug peptide relative to OD of original peptide (inhibition ELISA) [13] of less than 2 fold and an OD halfmax 1:X (dilution factor of the parental antibody at half-maximal OD) (dilutionfactor(1:x)) [14] greater than 20000.

B20: p4803 (peptide)
peptide: HEFRHC
With B20 the OD at 10 ug peptide relative to OD of original peptide (inhibition ELISA) [13] was less than 2 fold and the OD halfmax 1:X (dilution factor of the parental antibody at half-maximal OD) (dilutionfactor(1:x)) [14] was greater than 20000.

B21: p4793 (peptide)
peptide: IRWDGGC
In the case of B21, the OD at 10 ug peptide relative to OD of original peptide (inhibition ELISA) [9] is reported as 5 to 12 fold.

B22: p4800 (peptide)
peptide: CSEFKH
In the case of B22, the OD at 10 ug peptide relative to OD of original peptide (inhibition ELISA) [13] is reported as less than 2 fold and the OD halfmax 1:X (dilution factor of the parental antibody at half-maximal OD) (dilutionfactor(1:x)) [14] is reported as greater than 20000.
